Columns and labels:
HeLa Kyoto [1] = experiment: solubility in G1/S (NP-40 vs SDS abundance) (log2 ratio); higher = more soluble; details: cell cycle stage: G1/S
HeLa Kyoto [2] = experiment: melting temperature (median over replicates), in situ; higher = more thermally stable
HeLa Kyoto [3] = experiment: solubility change mitosis vs G1/S (difference of NP-40 vs SDS log2 ratios) (log2 ratio difference); higher = more soluble in mitosis
HeLa Kyoto [4] = experiment: thermal stability score vs G1/S (z-score of summed log2 fold changes over temperatures); higher = more thermally stable than in G1/S
[5] = cell cycle stage: early G1 (4.5 h after nocodazole release)
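Wherever melting temperature (median over replicates), in situ is given: HeLa Kyoto cells synchronized by double thymidine or nocodazole block, proteins quantified by TMT10plex mass spectrometry, three independent biological replicates.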
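Wherever solubility change mitosis vs G1/S (difference of NP-40 vs SDS log2 ratios) is given: synchronized HeLa Kyoto cells (double thymidine block for G1/S, nocodazole release for mitosis), protein amounts in NP-40 versus SDS lysates quantified by mass spectrometry, three biological replicates.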
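Wherever solubility in G1/S (NP-40 vs SDS abundance) is given: HeLa Kyoto cells arrested at G1/S by double thymidine block, proteins quantified by TMT10plex mass spectrometry in mild NP-40 versus SDS extracts, three biological replicates.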
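Wherever thermal stability score vs G1/S (z-score of summed log2 fold changes over temperatures) is given: synchronized HeLa Kyoto cells, proteins quantified by TMT10plex mass spectrometry, three biological replicates, mitosis taken 0.5 h after nocodazole release, G1/S directly after double thymidine block.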

Sequence | solubility in G1/S (log2) (HeLa Kyoto [1]) | melting temperature (HeLa Kyoto [2]; cell cycle stage: G1/S) | melting temperature (HeLa Kyoto [2]; cell cycle stage: mitosis) | solubility change mitosis (log2) (HeLa Kyoto [3]) | thermal stability score (HeLa Kyoto [4]; [5]) | thermal stability score (HeLa Kyoto [4]; cell cycle stage: mitosis)
MAARQAVGSGAQETCGLDRILEALKLLLSPGGSGSSSLQVTKHDVLLATLKSNLSALEDKFLKDPQWKNLKLLRDEIADKAEWPQNSVDVTWSFTSQTLLLLLCLKETMIRLAANFNPGKPNPRTPEVAPALSPDALSISQQKTVQFVLQFVVTLGICPYLMPGVGVPLRYRTEFGAVVQDVVCFDAAPDATRRLYTSCKALLNVAQHTSLGSLIFCHHFGDIAAGLCQLGFCPTKRKLLTPAEEVLTEEERTLSRGALRDMLDQVYQPLAVRELLILQGGPPQSCTDVKTQMRCRAPAWLRRLCGQLLSERLMRPNGVQAVVRGILEGAGAGAAGGSDAEVTAADWKKCDLIAKILASCPQQSLSPENYYRDICPQVLDLFHFQDKLTARQFQRVATTTFITLSRERPHLAAKYLLQPVLAPLHRCLNTAELSESDMVPGTILVTEEELSRCIEDVFKVYVVGNEPLTVLMDSLLPVLGVLFLLYCFTKQSVSHIRSLCQEILLWILGKLERKKAIASLKGFAGLDKAVPSLHSLCQFRVATQGGIMITIKEAISDEDEDEALYQKVSSEQGRVEHLGDLLSHCQECGLAGDFFIFCLKELTHVASENETELKTEPFSSKSLLELEQHQTLLVEGQERKLLVLQLMAVLCERMSEQIFTNVTQVVDFVAATLQRACASLAHQAESTVESQTLSMSMGLVAVMLGGAVQLKSSDFAVLKQLLPLLEKVSNTYPDPVIQELAVDLRITISTHGAFATEAVSMAAQSTLNRKDLEGKIEEQQQTSHERPTDVAHSHLEQQQSHETAPQTGLQSNAPIIPQGVNEPSTTTSQKSGSVTTEQLQEVLLSAYDPQIPTRAAALRTLSHWIEQREAKALEMQEKLLKIFLENLEHEDTFVYLSAIQGVALLSDVYPEKILPDLLAQYDSSKDKHTPETRMKVGEVLMRIVRALGDMVSKYREPLIHTFLRGVRDPDGAHRASSLANLGELCQRLDFLLGSVVHEVTACLIAVAKTDGEVQVRRAAIHVVVLLLRGLSQKATEVLSAVLKDLYHLLKHVVCLEPDDVAKLHAQLALEELDDIMKNFLFPPQKLEKKIMVLP [TANGO6] | -0.171 | 50.6 °C | 50.3 °C | -0.193 | 0.0292 | 0.767
MAARRALHFVFKVGNRFQTARFYRDVLGMKVESCSVARLECSGAISAHCSDYTRITEDSFSKPYDGKWSKTMVGFGPEDDHFVAELTYNYGVGDYKLGNDFMGITLASSQAVSNARKLEWPLTEVAEGVFETEAPGGYKFYLQNRSLPQSDPVLKVTLAVSDLQKSLNYWCNLLGMKIYEKDEEKQRALLGYADNQCKLELQGVKGGVDHAAAFGRIAFSCPQKELPDLEDLMKRENQKILTPLVSLDTPGKATVQVVILADPDGHEICFVGDEAFRELSKMDPEGSKLLDDAMAADKSDEWFAKHNKPKASG [GLOD4] | 0.42 | 50.8 °C | 50.9 °C | -0.012 | 0.704 | 0.532
MAARWRFWCVSVTMVVALLIVCDVPSASAQRKKEMVLSEKVSQLMEWTNKRPVIRMNGDKFRRLVKAPPRNYSVIVMFTALQLHRQCVVCKQADEEFQILANSWRYSSAFTNRIFFAMVDFDEGSDVFQMLNMNSAPTFINFPAKGKPKRGDTYELQVRGFSAEQIARWIADRTDVNIRVIRPPNYAGPLMLGLLLAVIGGLVYLRRSNMEFLFNKTGWAFAALCFVLAMTSGQMWNHIRGPPYAHKNPHTGHVNYIHGSSQAQFVAETHIVLLFNGGVTLGMVLLCEAATSDMDIGKRKIMCVAGIGLVVLFFSWMLSIFRSKYHGYPYSFLMS [MAGT1] | -0.189 | 53.9 °C | 53.3 °C | -0.0398 | 2.09 | 2.05
MAASKPVEAAVVAAAVPSSGSGVGGGGTAGPGTGGLPRWQLALAVGAPLLLGAGAIYLWSRQQRRREARGRGDASGLKRNSERKTPEGRASPAPGSGHPEGPGAHLDMNSLDRAQAAKNKGNKYFKAGKYEQAIQCYTEAISLCPTEKNVDLSTFYQNRAAAFEQLQKWKEVAQDCTKAVELNPKYVKALFRRAKAHEKLDNKKECLEDVTAVCILEGFQNQQSMLLADKVLKLLGKEKAKEKYKNREPLMPSPQFIKSYFSSFTDDIISQPMLKGEKSDEDKDKEGEALEVKENSGYLKAKQYMEEENYDKIISECSKEIDAEGKYMAEALLLRATFYLLIGNANAAKPDLDKVISLKEANVKLRANALIKRGSMYMQQQQPLLSTQDFNMAADIDPQNADVYHHRGQLKILLDQVEEAVADFDECIRLRPESALAQAQKCFALYRQAYTGNNSSQIQAAMKGFEEVIKKFPRCAEGYALYAQALTDQQQFGKADEMYDKCIDLEPDNATTYVHKGLLQLQWKQDLDRGLELISKAIEIDNKCDFAYETMGTIEVQRGNMEKAIDMFNKAINLAKSEMEMAHLYSLCDAAHAQTEVAKKYGLKPPTL [TOMM70A] | 0.504 | 50.4 °C | 50.1 °C | 0.0273 | 2.06 | 2.92
MAASMARRLWPLLTRRGFRPRGGCISNDSPRRSFTTEKRNRNLLYEYAREGYSALPQLDIERFCACPEEAAHALELRKGELRSADLPAIISTWQELRQLQEQIRSLEEEKAAVTEAVRALLANQDSGEVQQDPKYQGLRARGREIRKELVHLYPREAQLEEQFYLQALKLPNQTHPDVPVGDESQARVLHMVGDKPVFSFQPRGHLEIGEKLDIIRQKRLSHVSGHRSYYLRGAGALLQHGLVNFTFNKLLRRGFTPMTVPDLLRGAVFEGCGMTPNANPSQIYNIDPARFKDLNLAGTAEVGLAGYFMDHTVAFRDLPVRMVCSSTCYRAETNTGQEPRGLYRVHHFTKVEMFGVTGPGLEQSSQLLEEFLSLQMEILTELGLHFRVLDMPTQELGLPAYRKFDIEAWMPGRGRFGEVTSASNCTDFQSRRLHIMFQTEAGELQFAHTVNATACAVPRLLIALLESNQQKDGSVLVPPALQSYLGTDRITAPTHVPLQYIGPNQPRKPGLPGQPAVS [SARS2] | 0.265 | 51.5 °C | 51.4 °C | -0.148 | 2.24 | 1.72
MAASQTSQTVASHVPFADLCSTLERIQKSKGRAEKIRHFREFLDSWRKFHDALHKNHKDVTDSFYPAMRLILPQLERERMAYGIKETMLAKLYIELLNLPRDGKDALKLLNYRTPTGTHGDAGDFAMIAYFVLKPRCLQKGSLTIQQVNDLLDSIASNNSAKRKDLIKKSLLQLITQSSALEQKWLIRMIIKDLKLGVSQQTIFSVFHNDAAELHNVTTDLEKVCRQLHDPSVGLSDISITLFSAFKPMLAAIADIEHIEKDMKHQSFYIETKLDGERMQMHKDGDVYKYFSRNGYNYTDQFGASPTEGSLTPFIHNAFKADIQICILDGEMMAYNPNTQTFMQKGTKFDIKRMVEDSDLQTCYCVFDVLMVNNKKLGHETLRKRYEILSSIFTPIPGRIEIVQKTQAHTKNEVIDALNEAIDKREEGIMVKQPLSIYKPDKRGEGWLKIKPEYVSGLMDELDILIVGGYWGKGSRGGMMSHFLCAVAEKPPPGEKPSVFHTLSRVGSGCTMKELYDLGLKLAKYWKPFHRKAPPSSILCGTEKPEVYIEPCNSVIVQIKAAEIVPSDMYKTGCTLRFPRIEKIRDDKEWHECMTLDDLEQLRGKASGKLASKHLYIGGDDEPQEKKRKAAPKMKKVIGIIEHLKAPNLTNVNKISNIFEDVEFCVMSGTDSQPKPDLENRIAEFGGYIVQNPGPDTYCVIAGSENIRVKNIILSNKHDVVKPAWLLECFKTKSFVPWQPRFMIHMCPSTKEHFAREYDCYGDSYFIDTDLNQLKEVFSGIKNSNEQTPEEMASLIADLEYRYSWDCSPLSMFRRHTVYLDSYAVINDLSTKNEGTRLAIKALELRFHGAKVVSCLAEGVSHVIIGEDHSRVADFKAFRRTFKRKFKILKESWVTDSIDKCELQEENQYLI [LIG4] | -0.0399 | 48.4 °C | 49.6 °C | -0.329 | 0.0186 | 0.758
